Test results from patent publication US20190338035A1.

Key:
[1] = target: HLA-A*02:01 on T2 cells without peptide loading (human); test: flow cytometry on T2 cells, anti-M13 + PE anti-mouse IgG, no phage (background control)
[2] = target: WT H3.1 26-35 peptide/HLA-A*02:01 complex on T2 cells (human); test: as above
[3] = target: WT H3.3 26-35 peptide/HLA-A*02:01 complex on T2 cells (human); test: as above
[4] = target: control peptide mixture P20/HLA-A*02:01 complexes on T2 cells (human); test: as above
[5] = target: mutant histone K27M-H3.1 26-35 peptide/HLA-A*02:01 complex on T2 cells (human); test: as above
[6] = target: mutant histone K27M-H3.3 26-35 peptide/HLA-A*02:01 complex on T2 cells (human); test: as above
[7] = target: HLA-A*02:01 on T2 cells without peptide loading (human); test: flow cytometry on T2 cells, secondary antibody only, no phage (background control)
[8] = target: WT H3.1 26-35 peptide/HLA-A*02:01 complex on T2 cells (human); test: as above
[9] = target: WT H3.3 26-35 peptide/HLA-A*02:01 complex on T2 cells (human); test: as above
[10] = target: control peptide mixture P20/HLA-A*02:01 complexes on T2 cells (human); test: as above
[11] = target: mutant histone K27M-H3.1 26-35 peptide/HLA-A*02:01 complex on T2 cells (human); test: as above
[12] = target: mutant histone K27M-H3.3 26-35 peptide/HLA-A*02:01 complex on T2 cells (human); test: as above
[13] = target: HLA-A*02:01 on T2 cells without peptide loading (human); test: flow cytometry, phage on T2 cells, anti-M13 + PE anti-mouse IgG
[14] = target: WT H3.1 26-35 peptide/HLA-A*02:01 complex on T2 cells (human); test: as above
[15] = target: WT H3.3 26-35 peptide/HLA-A*02:01 complex on T2 cells (human); test: as above
[16] = target: control peptide mixture P20/HLA-A*02:01 complexes on T2 cells (human); test: as above
[17] = target: mutant histone K27M-H3.1 26-35 peptide/HLA-A*02:01 complex on T2 cells (human); test: as above
[18] = target: mutant histone K27M-H3.3 26-35 peptide/HLA-A*02:01 complex on T2 cells (human); test: as above
[19] = target: HLA-A*02:01 on T2 cells without peptide loading (human); test: flow cytometry, BB7.2 staining of T2 cells
[20] = target: WT H3.1 26-35 peptide/HLA-A*02:01 complex on T2 cells (human); test: flow cytometry, BB7.2 staining of T2 cells
[21] = target: WT H3.3 26-35 peptide/HLA-A*02:01 complex on T2 cells (human); test: flow cytometry, BB7.2 staining of T2 cells
[22] = target: control peptide mixture P20/HLA-A*02:01 complexes on T2 cells (human); test: flow cytometry, BB7.2 staining of T2 cells
[23] = target: mutant histone K27M-H3.1 26-35 peptide/HLA-A*02:01 complex on T2 cells (human); test: flow cytometry, BB7.2 staining of T2 cells
[24] = target: mutant histone K27M-H3.3 26-35 peptide/HLA-A*02:01 complex on T2 cells (human); test: flow cytometry, BB7.2 staining of T2 cells

Q: Which results are given for mouse anti-M13 mAb (antibody)?
A: Median MFI (PE-A) [1]: 80 MFI; Median MFI (PE-A) [2]: 86 MFI; Median MFI (PE-A) [3]: 83 MFI; Median MFI (PE-A) [4]: 82 MFI; Median MFI (PE-A) [5]: 85 MFI; Median MFI (PE-A) [6]: 83 MFI

Q: Which Median MFI (PE-A) [7] does the source give for “R-PE conjugated horse anti-mouse IgG (antibody)” here?
A: The Median MFI (PE-A) was 82 MFI.

Q: And the Median MFI (PE-A) [8]?
A: Its Median MFI (PE-A) is 83 MFI.

Q: And the Median MFI (PE-A) [9]?
A: Its Median MFI (PE-A) is 83 MFI.

Q: And the Median MFI (PE-A) [10]?
A: The Median MFI (PE-A) was 82 MFI.

Q: And the Median MFI (PE-A) [11]?
A: The Median MFI (PE-A) was 85 MFI.

Q: What about the Median MFI (PE-A) [12] of the same substance?
A: The Median MFI (PE-A) was 83 MFI.

Q: For negative control phage, which Median MFI (PE-A) [13] is on record?
A: Its Median MFI (PE-A) is 122 MFI.

Q: And the Median MFI (PE-A) [14]?
A: Its Median MFI (PE-A) is 131 MFI.

Q: And the Median MFI (PE-A) [15]?
A: The Median MFI (PE-A) was 128 MFI.

Q: What about the Median MFI (PE-A) [16] of the same substance?
A: The Median MFI (PE-A) was 124 MFI.

Q: What about the Median MFI (PE-A) [17] of the same substance?
A: Its Median MFI (PE-A) is 130 MFI.

Q: And the Median MFI (PE-A) [18]?
A: The Median MFI (PE-A) was 133 MFI.

Q: BB7.2 (antibody) was tested. Which Median MFI (PE-A) [19] did it give?
A: The Median MFI (PE-A) was 3600 MFI.

Q: And the Median MFI (PE-A) [20]?
A: The Median MFI (PE-A) was 8700 MFI.

Q: And the Median MFI (PE-A) [21]?
A: The Median MFI (PE-A) was 8650 MFI.

Q: And the Median MFI (PE-A) [22]?
A: Its Median MFI (PE-A) is 11300 MFI.

Q: What about the Median MFI (PE-A) [23] of the same substance?
A: The Median MFI (PE-A) was 9530 MFI.

Q: What about the Median MFI (PE-A) [24] of the same substance?
A: The Median MFI (PE-A) was 9650 MFI.
